Laboratory results: US20240382610A1 (TALLAC THERAPEUTICS, published 2024)
Residue numbers refer to the chain shown, from its start. One block for each binder: values may come before it.

Assays:
Experiment in all cases: SPR Biacore 8K, mAb on protein A
[1] = target: T1, Mouse nectin-4 ECD-6His (TNT-250) (mouse, UniProt Q8R007 31-347)
T1 construct: entry includes the 6His tag; also called mouse nectin-4-LCD
T1 sequence: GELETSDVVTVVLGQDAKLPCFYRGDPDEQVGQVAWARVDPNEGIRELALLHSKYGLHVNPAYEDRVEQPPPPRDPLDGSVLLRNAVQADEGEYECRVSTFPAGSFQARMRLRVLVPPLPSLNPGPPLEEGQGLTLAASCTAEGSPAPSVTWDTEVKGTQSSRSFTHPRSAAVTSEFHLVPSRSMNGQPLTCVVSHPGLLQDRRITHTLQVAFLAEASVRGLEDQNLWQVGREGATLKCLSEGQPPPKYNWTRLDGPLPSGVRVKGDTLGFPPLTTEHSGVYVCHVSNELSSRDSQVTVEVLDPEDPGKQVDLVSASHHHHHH
Method: (§1) The running buffer was 10 mM HEPES, pH 7.4, 150 mM NaCl, 3 mM EDTA, 0.05% (v/v) Surfactant P20 (HBS-EP+). […] The nectin-4 analytes were injected in either single-cycle kinetics or multi-cycle kinetics mode at nominal starting concentrations of 300 nM or 900 nM with 3-fold serial dilutions. Association times were monitored for 120 s, and dissociation times were monitored 1800 s at 30 μL/min flow rate. The surfaces were regenerated with 10 mM glycine at pH1.7 or 75 mM phosphoric acid at pH1.6 for two pulses of 15 s at 30 μL/min flow rate.
(§2) The data were processed and analyzed with Biacore 8K Evaluation Software Version 3.0.12.15655 (Cytiva, Global Life Sciences Solutions USA LLC, Marlborough, MA). […] The responses from the nearest buffer blank injection were then subtracted from the reference subtracted data (2-1) to yield double-referenced data. These double-reference data were fit to a simple 1:1 Langmuir binding model with mass transport to determine the apparent association (ka) and dissociation rate constants (kd). The apparent equilibrium dissociation constant or affinity constant was then calculated based on their ratio as (KD=kd/ka).

[2] = target: T2, Cyno nectin-4 ECD-6His (TNT-255) (cynomolgus, UniProt Q96NY8 32-349 (human entry))
T2 construct: entry includes the 6His tag
T2 chain: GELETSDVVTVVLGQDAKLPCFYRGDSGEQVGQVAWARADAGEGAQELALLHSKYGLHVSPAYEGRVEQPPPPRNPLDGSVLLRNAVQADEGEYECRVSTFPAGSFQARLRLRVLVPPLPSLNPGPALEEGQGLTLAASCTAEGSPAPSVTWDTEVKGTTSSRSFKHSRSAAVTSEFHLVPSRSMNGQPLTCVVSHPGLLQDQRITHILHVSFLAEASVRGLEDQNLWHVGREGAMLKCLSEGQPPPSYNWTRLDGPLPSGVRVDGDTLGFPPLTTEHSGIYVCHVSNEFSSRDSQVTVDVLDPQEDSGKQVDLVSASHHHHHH
Method: as §1, §2

[3] = target: T3, Human nectin-4 ECD-6His (TNT-175) (human, UniProt Q96NY8 32-349)
T3 construct: the entry holds the extracellular domain with the C-terminal 6His tag
T3 sequence: T2 chain with A39V, V230I
Method: as §1, §2

[4] = target: T4, Human nectin-4-IgV-6His (TNT-252) (human, UniProt Q96NY8 32-147)
T4 construct: entry includes the 6His tag
T4 sequence: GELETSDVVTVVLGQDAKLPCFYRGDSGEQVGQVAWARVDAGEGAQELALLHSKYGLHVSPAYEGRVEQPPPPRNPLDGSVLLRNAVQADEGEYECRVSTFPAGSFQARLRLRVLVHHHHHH
Method: as §1, §2

B1: TNT-332 (antibody, V domains shown)
VH: QVQLVQSGAEAKKPGASVRVSCKTSGYTFTNYYIHWVRQAPGQGLEWMGIINPTLDSTSYAQKFQDRVTMTRDTSTNTDYMDLSSLRFEDTAVYYCARSAGFDAFDIWGQGTMVTVSS
VL: DIQLTQSPSFLSASVGDKVTITCRASQGINSYLAWYQQKPGKAPKLLIYSASTLQGGVPSRFSGSGSGTEFTLTISNLQPADFATYCCQQLNSYPFTFGPGTKVDIKR
notes: human IgG1
binding result [1]: no binding (tested: up to 300 or 900 nM analyte)
Kd [2]: 7.2 nM
Kd [3]: 7.6 nM
binding result [4]: no binding (tested: up to 300 or 900 nM analyte)

B2: TNT-336 (antibody, V domains shown)
VH: KVQLVESGGGLVQPGGSLRLSCEASGFTFSNYWMHWVRQVPGEGLVWVSRLNNGGTSTRYADSVKSRFTISRDNAKNTLYLQMNSLRAEDTAVYYCVRDWYFDLWGRGTLVTVSS
VL: QLVLTQSPSASASLGASVKLTCTLSSGHSFYAIAWHQQQPEKGPRYLMQVNSNGSHNKGDGIPDRFSGSSSGAERYLTISSLQSEDEADYYCQSWDTDIWVFGGGTKLTVLG
notes: human IgG1
binding result [1]: no binding (tested: up to 300 or 900 nM analyte)
binding result [2]: no binding (tested: up to 300 or 900 nM analyte)
Kd [3]: 111 nM
Kd [4]: 104 nM

B3: TNT-333 (antibody, V domains shown)
VH: QVQLQESGPGLVKPSETLSLTCTISGGSISSYYWSWIRQPPGKGLEWIGYIFYIGNTNYYPSLKSRVTISVDASKNQFSLKLSSVTAADTAVYYCARSYPYWYFDLWGRGTLVTVSS
VL: QSVLTQPPSVSAAPGQKVTISCSGSSSNIGNNYVSWYQQLPGTAPKLLISDNNKRPSGIPDRFSGSKSGTSATLGITGLQTGDEADYYCGTWDSSLSAGVVFGGGTKLTVLG
notes: human IgG1
binding result [1]: no binding (tested: up to 300 or 900 nM analyte)
Kd [2]: 7.43 nM
Kd [3]: 6.18 nM
binding result [4]: no binding (tested: up to 300 or 900 nM analyte)

B4: TNT-337 (antibody, V domains shown)
VH: EVQLVESGGGLVQPGGSLRLSCAASGFTFSNYDMSWVRQAPGKGLEWVATISSGGSYTYYVDSVKGRFTISRDNAKNSLYLQMNSLRAEDTAVYYCARQELGSYYAMDYWGQGTTVTVSS
VL: DIVMTQTPLSLPVTPGEPASISCRSSQSIVHSNANTYLEWYLQKPGQSPQLLIYKVSNRFSGVPDRFSGSGSGTDFTLKISRVEAEDVGVYYCFQGSHVPYTFGGGTKVEIKR
notes: human IgG1
Kd [1]: 318 nM
Kd [2]: 286 nM
Kd [3]: 217 nM
Kd [4]: 195 nM

Second part, led by results:

Kd [2]: 95.3 nM
Kd [3]: 71.5 nM
Kd [4]: 46.3 nM
B5: TNT-334 (antibody, V domains shown)
VH: EVQLVESGGGLVQPGGSLRLSCAASGFTFSRYWMHWVRQAPGKGLVWVSRINSDGSSSNYADSVKGRFTFSRDNAKNTLYLQMNSLRAEDTAVYFCVRDNWYFDYWGQGTLVTVSS
VL: EIVMTQSPATLPVSPGERATLSCRASQSVSINLAWYQQKPGQAPRLLIYGVSTRATGIPARFSGSGSGTEFTLTISGLQSEDFAVYYCQQYNNWPRTFGQGTKVEIKR
notes: human IgG1
binding result [1]: no binding (tested: up to 300 or 900 nM analyte)

Kd [2]: 1.28 nM
Kd [3]: 1.83 nM
Kd [4]: 0.985 nM
B6: TNT-335 (antibody, V domains shown)
VH: QVQLQESGPGLVKPSETLSLTCTVSGGSISSYYWSWIRQPPGKGLEWIGYIHYSGISNYNPSLKSRVAISLDTSNNHFSLKLTSLTAADTAVYFCARGSYWFDPWGQGTLVTVSS
VL: QSVLTQPPSASGTPGQRVTISCSGSSSNIGSDYIYWYQQLPGTAPKLLIYSNHQRPSGVPDRFSGSKSGTSASLAISGLRSEDEADYYCAAWEDSLSGPIFGGGTKLTVLG
notes: human IgG1
binding result [1]: no binding (tested: up to 300 or 900 nM analyte)
